Test results published in US20130129725A1 (published 2013).

target: biotinylated hu-β-klotho (UniProt Q86Z14 53-996, biotinylated (sites not given)); assay: Octet BLI
Sequence (Q86Z14 53-996): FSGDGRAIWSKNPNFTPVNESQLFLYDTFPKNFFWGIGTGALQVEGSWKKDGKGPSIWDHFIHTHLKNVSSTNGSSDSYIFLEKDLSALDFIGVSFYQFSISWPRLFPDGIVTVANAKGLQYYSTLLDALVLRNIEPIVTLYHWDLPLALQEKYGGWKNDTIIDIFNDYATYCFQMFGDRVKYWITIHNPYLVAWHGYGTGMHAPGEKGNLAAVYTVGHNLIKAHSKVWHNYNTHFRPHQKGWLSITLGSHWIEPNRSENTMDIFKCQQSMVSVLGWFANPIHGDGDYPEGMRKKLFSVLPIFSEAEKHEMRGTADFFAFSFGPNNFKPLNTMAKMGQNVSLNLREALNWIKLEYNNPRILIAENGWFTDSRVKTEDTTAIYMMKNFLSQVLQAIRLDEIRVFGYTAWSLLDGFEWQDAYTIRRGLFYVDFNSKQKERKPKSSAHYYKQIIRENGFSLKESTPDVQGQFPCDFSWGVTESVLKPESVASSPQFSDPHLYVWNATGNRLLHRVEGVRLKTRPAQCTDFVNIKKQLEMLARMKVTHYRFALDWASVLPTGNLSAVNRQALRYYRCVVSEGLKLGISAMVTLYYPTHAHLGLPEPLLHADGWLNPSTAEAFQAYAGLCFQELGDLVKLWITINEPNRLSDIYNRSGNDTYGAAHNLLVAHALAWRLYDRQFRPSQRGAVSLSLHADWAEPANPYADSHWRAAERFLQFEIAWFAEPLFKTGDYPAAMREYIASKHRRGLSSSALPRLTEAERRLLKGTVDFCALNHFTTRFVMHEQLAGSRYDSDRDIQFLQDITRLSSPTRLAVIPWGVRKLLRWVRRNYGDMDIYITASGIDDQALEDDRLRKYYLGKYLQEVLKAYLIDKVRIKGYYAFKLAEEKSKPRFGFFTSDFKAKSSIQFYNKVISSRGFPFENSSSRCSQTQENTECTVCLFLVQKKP

Row | Kd [nM] | Binder
1 | 0.563 | 10H3 (antibody, V domains shown) VH: QVQLVQSGAEVRKPGASVKVSCKASGYTFTAYYMHWVRQAPGQGLEWMGWINPYSGGTNSAQKFQGRVTMTRDTSISTAYMELSWLRSDDTAVYYCARDATSGWFDFWGQGTLVTVSS VL: DIVMTQTPLSSPVTLGQPASISCRSSQSLVHYDGNTYLSWLQQRPGQPPRLLIYKISNRFSGVPDRFSGSGAGTDFTLKISRVAAEDVGIYYCMQALEFPWTFGQGTKVEIKR
2 | 0.422 | 8F9 (antibody, V domains shown) VH: QVQLVESGGGVVQPGRSLRLSCAASGFTFSSYGMHWVRQAPGKGLEWVAVIWYDGRNKYHADSVKGRFTISRDNSKNTLYLQMNSLRAEDTAVYYCARDHPVAGTSFDYWGQGTLVTVSS VL: QSVLTQPPSVSAAPGQKVTISCSGSSSNIGNNYVSWYQQLPGTAPKLLIYDNNKRPSGIPDRFSGSKSGTSATLGITGLQTGDEADYYCGTWDSSLSAVVFGGGTKLTVLG
3 | 0.298 | 9D10 (antibody, V domains shown) VH: QVQLVESGGGVVQPGRSLRLSCAASGFTFRSYGMHWVRQAPGKGLEWVAVIWYDGRNEYYADSVKGRFTISRDNSKNTLYLRMNSLRAEDTAVYYCARDHPVAGTSFDYWGQGTLVTVSS VL: QSVLTQPPSVSAAPGQKVTISCSGSSSNIGNNYVSWYQQLPGTAPKLLIYDNNRRPSGIPDRFSGSKSGTSATLGITGLQTGDEADYYCGTWDSSLSAVVFGGGTKLTVLG

More lines, now with the values behind:

Row | Binder | Kd [nM]
4 | 1A2 (antibody, V domains shown) VH: not shown VL: DIVMTQTPLSSPVTLGQPASISCRSSQSLVYSDGNTYLSWLQQRPGQPPRLLIYKISNRFSGVPDRFSGSGAGTDFTLKISRVEADDVGIYYCMQAIEFPWTFGQGTQVEIKR | 2.14
5 | 1B5 (antibody, V domains shown) VH: QVQLVQSGAEVKKPGASVKVSCKASGYTFTAYYMHWVRQAPGQGLEWMGWINPNSGGTNSAQKFQGRVTMTRDTSIRTAYMELSWLRSDDTAVYYCARDATSGWFDFWGQGTPVTVSS VL: DIVMTQTPLTSPVTLGQPASISCRSSQSLVHYDGNTYLSWLQQRPGQPPRLLIYKISNRFSGVPDRFSGSGAGTDFTLKISRVEAEDVGIYYCMQALEFPWTFGQGTKVEIKR | 0.578
6 | 3B4 (antibody, V domains shown) VH: QVQLVQSGAEVKKPGASVKVSCKASGYTFTAYYMHWVRQAPGQGLEWMGWINPNSGGTNSAQKFQGRVTMTRDTSIRTAYMELSWLRSDDTAVYYCARDATSGWFDIWGQGTPVTVSS VL: DIVMTQTPLSSPVTLGQPASISCRSSQSLVHYDGNTYLSWLQQRPGQPPRLLIYKISNRFSGVPDRFSGSGAGTDFTLKISRVEAEDVGIYYCMQALEFPWTFGQGTKVEIKR | 6.08
7 | 3F4 (antibody, V domains shown) VH: QVQLVESGGGVVQPGRSLRLSCAASGFIFRSYGMHWVRQAPGKGLEWVAVISYDGSNKYYADSVKGRFTISRDNSKNTLYLQMNSLRAEDTAVYYCARDHPVAGTSFDYWGQGTLVTVSS VL: QSVLTQPPSVSAAPGQKVTISCSGSSSNIGNNYVSWYQQLPGTAPKLLIYDNNNRPSGIPDRFSGSKSGTSATLGITGLQTGDEADYYCETWDSSLSAGVFGGGTKLTVLG | 0.281
